# Source: paper PMC3211139 (Molecular microbiology, 2011)
# Values joined by “and” are separate entries in the source; they are usually repeats but may differ in a detail not shown here. Equal values may be shown once.
# Molecular target: the molecule itself
# Assay: native gel or EMSA
protein,measurement,value
AtxA-His (natural protein) MLTPISIEKEHIRLINLLHFINEQNRWFTIKELSDYLQVADKTVRKYLKLLEDEIPPSWNLLVQKGKGIYLKKPLNESLSFVESKILRKSLNLQICEELVFKKNSMQSLAQKLHLQVGALYPIINQINYDIQSSHLNIKKKPLEISGREQDVRVFMLRLYCNIPNDYWPFPYINKQNITDLINKMEKILNVQMYTYSKHKLCVLFAITISRLLSGNTIDNVSGLILVNKNDDHYKTVASITSELQNSFGVTLHETEISFLALALLLSLGNSITTDSNKTLTSYKKTIMPLAKEITKGIEHKLQLGINYDESFLTYVVLIIKKALDKNFIQYYNYNIKFIRHIKQRHPNTFNTIQECISNLNYTVYSHFDCYEISLLTMHFETQRMLFKNNPKKIYVYTSQGCIHREYISALLEKRYNGLIKIVRNTIINLTNESLQDMEIDIIISNVNLPIKNIPIVQISEFPTERDFHEIKKII,stoichiometry N,2 and 4
